Substrate: Nc1ccn([C@@H]2O[C@H](COP(=O)(O)OP(=O)(O)OP(=O)(O)O)[C@@H](O)[C@H]2O)c(=O)n1
Assay: purified protein
Conditions: 20 mM glycerol phosphate, 6 mM MgCl2, 20 mM Tris-HCl pH 8, 37°C

B1: LmGCT (Listeria monocytogenes glycerol 3-phosphate cytidylyltransferase) (Listeria monocytogenes EGD-e) (protein)
chain: MKKVITYGTFDLLHWGHIHLLKRAKALGDYLIVAISSDEFNRIKHKEAYHSYEHRKLIIEAIRYVDEVIPENNWEQKRDDIEKYGIDVFVMGDDWEGEFDFLKDVCEVVYLPRTEGISTSQIKDELK
- Km: 1.52 mM
- kcat: 4.15 s⁻¹

B2: EfGCT (Enterococcus faecalis glycerol 3-phosphate cytidylyltransferase) (Enterococcus faecalis V583) (protein)
chain: MKKILTYGTFDLLHYGHINLLKKAKQQGDYLIVGLSTDAFNLEKKKQSYFSYEKRKQLLEAIRYVDLVIPETSWKQKVSDIAEFKIDTLVMGDDWQGAFDFLEVETTAKVLYLPRTPEVSTTQIKKELYYSE
- Km: 2.42 mM
- kcat: 1.51 s⁻¹
